Consider three proteins from publication PMC12060649, “Tuning the Dimensionality of Protein–Peptide Coassemblies to Build 2D Conductive Nanomaterials” (ACS Nano, 2025).

B1: E9 peptide (peptide)
peptide: EEFEFEFEFEFEFEE
notes: designed amphiphilic peptide, E6 with additional glutamic acids at both termini
B2: E7 peptide (peptide)
peptide: EFEFEFEFEFEFE
notes: designed amphiphilic peptide, E6 with one more glutamic acid at the N-terminus; In the coassemblies it stood as pre-formed, sonicated self-assembled fibres; also called E7 fibers; E7 self-assembled fibers
B3: 6-repeat peptide (FE)6, E6 (peptide)
peptide: FEFEFEFEFEFE
notes: designed amphiphilic peptide, six repeats of the dipeptide Phe-Glu; Forms supramolecular fibres; also called (FE)n with n = 6

This data set concerns the molecule itself. The data set is described as follows: AFM + other: TEM; peptides in water at pH ≈ 5, sonicated 10 min, annealed at 80° for 30 min; AFM on mica at 1 mM, dry tapping mode; TEM at 10 μM, negative staining with uranyl acetate.
With B1, the binding result is “binds”.
To B2 belongs “binds”; to B3, “binds”.
